According to paper PMC12394070:

Target: HA–TDP-43–FKBP

solubility assay: share of TDP-43 in the insoluble fraction after heat stress with rapamycin (80% without rapamycin) (% of TDP-43 in the insoluble fraction): 20
Substance: FRB–PML–Myc
